B1: LAM 32.10: bovine cathelicidin variant, SEQ ID NO 175 (protein)
chain: METQRASLSLGRWSLWLLLLGLVLPSASAQALSYREAMLRAVDQLNERSSEAHLYRLLELDPPPDMSWGGDRGRAFLLPALATLLPLHSGCTSCQEGTFPSRWVPTSSRKASQTWVISQHQASCLSISAVGIGTLHTWLKFPGLLGAPGMGGS
B2: LAM 32b: splice variant of tammar wallaby LAM 32, SEQ ID NO 207 (protein)
chain: MRGLTMQVLLLVLGLLSLMTPLGYAQDQPYQDVLNRFIQEYNTKSESESLFRLSVLNLPSQESNDPTAPQLLKFTIRETVCSKSEHRNPEECDFKKNGVRVSWAGKGF
B3: LAM 32.9: bovine cathelicidin variant, SEQ ID NO 173 (protein)
chain: METPRASLSLGRCSLWLLLLGLVLPSASAQALSYREAVLRAVDQFNERSSEANLYRLLELDPTPNDVSYEGIWAGRPASWGAGRQIRGRRMSPNPVSPTLTHDQDLDPGTRKPVSFRVKETDCPRTSQQPLEQCDFKENGVSLGAGEKNGRCFPGIGQRAWGRLPIPGRRPGGYGHRGFSLTLNLPFQLVKTVCGTARHQHN
B4: LAM 32.11: bovine cathelicidin variant, SEQ ID NO 177 (protein)
chain: METQRASLSLGRWSLWLLLLGLVLPSASAQALSYREAMLRAVDQLNERSSEAHLYRLLGASTRPPSGHELGRGTGDEPFSCPALATLLPLHSGCTSCQEGTFPSRWVPTSSRKAVSRDLGHLPAPGYPCLSISAVGIGTLHTWLRFPGLLGSSRDGGVTGSVR
B5: LAM 32.8: bovine cathelicidin variant, SEQ ID NO 171 (protein)
chain: METPRASLSLGRWSLWLLLLGLALPSAQRPGPQLQGGRASCLMESASMKKSSEANLYRLLELDPPPKEDDENPNIPKPVSFRVKETVCPRTSQQSPEQCDFKENGLLKYCVGTVSRWDQVGSNFDITCAAPQSVGGLQAWVGRYYVLGKSMAQLLFQ
B6: LAM 32a: splice variant of tammar wallaby LAM 32, SEQ ID NO 215 (protein)
chain: MRDSTMQVLLLVLGLLSLMTSLACAQDQPYQDVLNRFIQEYNTKSESESLFRLSVLNLPPEESNDPAVPLLKFTIRETVCPKTEHRNADECDFKKNGLVKQCIGTIDLDSPNPSVDISCDRPAKVKRGLWESLKRKATKLGDDIRNTLRNFKIKFPVPRQG

How the values were obtained:
[1] = tested on: AGS cells; experiment: Cell growth using bovine cathelicidin variants in AGS cells (SRB assay); format: cell-based, human; design: unit not given here; details: 72 hours; for cell growth Replicate 3: -ve control 0.233; for cell growth Replicate 1: -ve control 0.247; for cell growth Replicate 4: -ve control 0.265; for cell growth Replicate 2: -ve control 0.316; for cell growth Mean: -ve control mean 0.265
Procedure: A cellular growth assay was performed using seven bovine cathelicidin (CATHL) variants, namely CATHL1, 4, and 6 which are known in the art (the relevant sequences can be obtained using the following hyperlink: http://www.ncbi.nlm.nih.gov/entrez/query.fcqi?db=unigene&cmd=search&term=cathelicidin) and bovine Cathelicidins 8, 9, 10 and 11 (being LAMs 32.8, 32.9, 32.10 and 32.11, respectively) as identified herein and which are derived from LAM 32. The bovine cathelicidin associated LAMs were derived by sequence comparison to the tammar polynucleotide sequence of LAM 32.
The growth rate of AGS cells was assessed in the presence of the cathelicidins. Equal numbers of human gastric epithelial AGS cells were cultured in either control media or media conditioned with bovine cathelicidins for 72 hours in a 1:10 dilution of serum and antibiotic-free Optimem. Cells were then fixed and a Sulforhodamine B (SRB) colorimetric assay was undertaken as described in Journal of Immunological Methods 208: 151-158, K. T. Papazisis, G. D. Geromichalos, K. A. Dimitriadis, A. H. Kortsaris (1997), ‘Optimization of the sulforhodamine B colorimetric assay’.
Briefly, cells were fixed directly by incubation with 10% trichloroacetic acid for 1 hour at 4° C., washed with water, air-dried overnight and then stained with 0.4% w/v sulforhodamine B, 1% acetic acid solution for 10 minutes at room temperature. Cell were again washed with 1% acetic acid and air-dried, then counted in triplicate.

[2] = tested on: chicks; experiment: Chick growth assay (in ovo injection, weight at hatching); format: in vivo; details: for Chick weight: bovine polypeptides in conditioned media, 1 ml in ovo on day 16 of incubation, weighed on day of hatching, Saline 51.0; for death / overall condition of chick: in ovo injection on day 16 of incubation
Procedure: FIG. 5. Chick growth assay by measuring weight. 10 LAMs (being bovine homologues having homology to specific Tammar ESTs), 3 known bovine cathelicidins, and four bovine cathelicidin variants were tested. Conditioned media containing a LAM polypeptides or bovine cathelicidins or variants thereof was diluted in a total of 1 ml of normal saline. Eggs on day 16 of incubation were injected with 1 ml of the media containing the into the broad end of the egg. Chicks were weighed on day of hatching. The overall condition of the chick was assessed including the possible presence of stumpy legs and/or loss of down feathers.
Conditioned media containing LAM polypeptides or bovine cathelicidins or variants thereof were diluted in a total of 1 ml of normal saline. Eggs on day 16 of incubation were injected in ovo with 1 ml of LAM polypeptides or bovine cathelicidins or variants thereof into the broad end of the egg. Chicks were weighed on day of hatching. Controls included saline only, or saline and 10 mg/ml of a peptide as a random peptide control.
As set out in Table 23, the left column indicates the polypeptide used in the assay while the right column contains chick weight in grams as a measurement of chick growth. Bolded numbers represent a chick(s) larger than the controls and more than 2 standard deviations from the mean. In addition, bolded numbers represent chicks that have been killed. The mean represents the weight of all the chicks tested within this experiment.

[3] = tested on: HC11 cells; experiment: Cell growth with cathelicidins in HC11 cells; format: cell-based, mouse; design: cell growth Rep. 1 / cell growth Rep. 2 / cell growth Rep. 3 / cell growth Rep. 4 / cell growth Mean: unit not given here; details: 72 hours; for cell growth Rep. 1: 1:10 dilution conditioned media, -ve control 0.727; for cell growth Rep. 2: -ve control 0.76; for cell growth Rep. 3: -ve control 0.786; for cell growth Rep. 4: -ve control 0.808; for cell growth Mean: -ve control mean 0.77025; for cell growth versus control (significance): P<0.05 t-test
Procedure: FIG. 2. Cellular growth assay with HC11 cells. Mouse mammary epithelial cells, HC11 cells, were grown in media conditioned with: mock transfection (control), LAM32, LAM32a or LAM32b for 72 hours. Samples were performed in triplicate and the cells from each triplicate counted in triplicate. […] LAM 32 is represented as set forth in SEQ ID NO: 188, and two splice variants thereof, designated LAM32a and 32b as set forth in SEQ ID NO: 215 and 207 respectively.
As shown in FIG. 2 equal numbers of mouse mammary HC11 cells were grown in the presence of either a negative control or tammar wallaby cathelicidin-associated polypeptide, namely LAM 32 (SEQ ID NO: 188), LAM 32a (SEQ ID NO: 215) or LAM 32b (SEQ ID NO: 207) in order to determine the effect of these LAMs on cellular growth.
(§1) HC11 cells were initially plated at 50 percent confluency and cultured for 72 hours in a 1:10 dilution of serum and antibiotic free Optimem and media conditioned with cathelicidin associated polypeptides. The medium was removed and then washed gently for 2 minutes with Mg^2+- and Ca^2+-free phosphate buffered saline (PBS), 0.05% Trypsin and 1:5000 Versene to disrupt cell aggregates. Cells were collected by scraping and washed twice by resuspension in complete medium followed by centrifugation. The cells were again resuspended and counted in triplicate using a Luber haemocytometer.
(§2) The cells were counted in triplicate using a Luber haemocytometer. The negative control was media alone (i.e. conditioned media […] insertless vector). The samples were deemed statistically significant using a t-test comparing the control with the sample if the values of cell growth were 2 standard deviations higher than the mean of the negative control.

[4] = tested on: mouse ES cells; experiment: Cell growth with cathelicidins in mouse ES cells; format: cell-based; design: cell growth Rep. 1 / cell growth Rep. 2 / cell growth Rep. 3 / cell growth Mean: unit not given here; details: 24 hours; for cell growth Rep. 1: 1:10 dilution conditioned media, -ve control 0.34; for cell growth Rep. 3: -ve control 0.352; for cell growth Rep. 2: -ve control 0.474; for cell growth Mean: -ve control mean 0.388666667
Procedure: as §1, with “Mouse ES” for “HC11”, “were” for “were initially”, “24” for “72”, “saline” for “saline (PBS),”
as §2

Row | Molecule | cell growth Replicate 3 [1] | cell growth Replicate 1 [1] | cell growth Replicate 4 [1] | cell growth Replicate 2 [1] | cell growth Mean [1] | Chick weight [2] | cell growth Rep. 1 [3] | cell growth Rep. 2 [3] | cell growth Rep. 3 [3] | cell growth Rep. 4 [3] | cell growth Mean [3] | cell growth versus control (significance) [3] | cell growth versus control (significance) [4] | cell growth Rep. 1 [4] | cell growth Rep. 3 [4] | cell growth Rep. 2 [4] | cell growth Mean [4] | death / overall condition of chick [2] | chick size versus controls ([2]; body weight relative to mean/median of all chicks tested)
1 | CATHL4: bovine cathelicidin 4, known in the art (ILPWKWPWWPWRR; UniProt P33046 131-143, looked up) [reference compound] | 0.409 | 0.626 | 0.500 | 0.465 | 0.500 | 49.7 grams | – | – | – | – | – | – | – | – | – | – | – | – | –
2 | B1 | 0.534 | 0.602 | 0.514 | 0.405 | 0.514 | 53.8 grams | – | – | – | – | – | – | – | – | – | – | – | – | –
3 | B2 | – | – | – | – | – | – | 0.89 | 0.841 | 0.862 | 0.832 | 0.8562 | significantly more cells | significantly different growth from the control | 0.676 | 0.693 | 0.677 | 0.682 | – | –
4 | B3 | 0.220 | 0.246 | 0.229 | 0.220 | 0.229 | 46.5 grams | – | – | – | – | – | – | – | – | – | – | – | caused stumpy legs and loss of down | –
5 | B4 | 0.563 | 0.365 | 0.431 | 0.366 | 0.431 | 59^ grams | – | – | – | – | – | – | – | – | – | – | – | – | produced a chick larger than the controls
6 | B5 | 0.261 | 0.441 | 0.361 | 0.382 | 0.361 | Killed | – | – | – | – | – | – | – | – | – | – | – | caused death of chicks | –
7 | B6 | – | – | – | – | – | – | 0.958 | 0.977 | 1.008 | 1.102 | 1.011 | significantly more cells | significantly different growth from the control | 0.575 | 0.517 | 0.605 | 0.5657 | – | –
